Substrate: NC(=O)N[C@H]1NC(=O)NC1=O
Assay: purified protein
Type: biochemical, Klebsiella pneumoniae
Conditions: 10 mM NaCl, 10 mM HEPES, pH 7.5, 25 °C, no cofactor or metal

B1: KpHpxA (K. pneumoniae allantoin racemase) (Klebsiella pneumoniae subsp. pneumoniae MGH 78578) (protein)
chain: MSSVRIQVINPNTSLAMTETIGAAARAVAAPGTEILAVCPRAGVPSIEGHFDEAIAAVGVLEQIRAGREQGVDGHVIACFGDPGLLAARELAQGPVIGIAEAAMHMATMVATRFSIVTTLPRTLIIARHLLHQYGFHQHCAALHAIDLPVLALEDGSGLAQEKVRERCIRALKEDGSGAIVLGCGGMATLAQELTRELRVPVIDGVSAAVKMVESLVALGLATSKHGDLAFPEKKALSGQFQSLNPF
B1 was tested, and the kcat was 183 ± 17 s⁻¹.

— PMC3129624
